# Legend:
# [1] = target: atypical MC receptor of Cos-7 cells; experiment: cell-based or functional assay
# [2] = target: MC receptor endogenous to Xenopus laevis melanophores (Xenopus laevis); experiment: cell-based or functional assay
binder,measurement,setting,value
"SYSMEHFRWGKPV (ligand, UniProt P01189 138-150, looked up) [α-melanocyte stimulating hormone]",EC50 of α-MSH for cAMP production in Cos-7 cells,[1],~80 nM
same,EC50 of α-MSH alone in frog melanophores,[2],0.03 nM

# Reference: patent US20020004485A1 (University of California, published 2002)
